For orientation: stoichiometry N means a count of units in the complex or per binding partner.

The source of these data is paper PMC5263234, “Dynamin-2 Stabilizes the HIV-1 Fusion Pore with a Low Oligomeric State” (Cell Reports, 2017).

Where “and” joins values, the source holds several entries; their conditions need not be identical. Identical values can stand only once.

Data set [1] concerns the molecule itself. In words: number and brightness analysis with TIRF microscopy; live TZM-bl cells expressing Dynamin-mCherry, exposed to HIV(JRFL) at MOI 10; 100 frames at 50 ms per frame; brightness calibrated against mCherry alone.
Data set [2] concerns the molecule itself. In words: number and brightness analysis with TIRF microscopy.

B1: dynamin-2 (natural protein, UniProt P50570 1-870, looked up)
chain: MGNRGMEELIPLVNKLQDAFSSIGQSCHLDLPQIAVVGGQSAGKSSVLENFVGRDFLPRGSGIVTRRPLILQLIFSKTEHAEFLHCKSKKFTDFDEVRQEIEAETDRVTGTNKGISPVPINLRVYSPHVLNLTLIDLPGITKVPVGDQPPDIEYQIKDMILQFISRESSLILAVTPANMDLANSDALKLAKEVDPQGLRTIGVITKLDLMDEGTDARDVLENKLLPLRRGYIGVVNRSQKDIEGKKDIRAALAAERKFFLSHPAYRHMADRMGTPHLQKTLNQQLTNHIRESLPALRSKLQSQLLSLEKEVEEYKNFRPDDPTRKTKALLQMVQQFGVDFEKRIEGSGDQVDTLELSGGARINRIFHERFPFELVKMEFDEKDLRREISYAIKNIHGVRTGLFTPDLAFEAIVKKQVVKLKEPCLKCVDLVIQELINTVRQCTSKLSSYPRLREETERIVTTYIREREGRTKDQILLLIDIEQSYINTNHEDFIGFANAQQRSTQLNKKRAIPNQGEILVIRRGWLTINNISLMKGGSKEYWFVLTAESLSWYKDEEEKEKKYMLPLDNLKIRDVEKGFMSNKHVFAIFNTEQRNVYKDLRQIELACDSQEDVDSWKASFLRAGVYPEKDQAENEDGAQENTFSMDPQLERQVETIRNLVDSYVAIINKSIRDLMPKTIMHLMINNTKAFIHHELLAYLYSSADQSSLMEESADQAQRRDDMLRMYHALKEALNIIGDISTSTVSTPVPPPVDDTWLQSASSHSPTPQRRPVSSIHPPGRPPAVRGPTPGPPLIPVPVGAAASFSAPPIPSRPGPQSVFANSDLFPAPPQIPSRPVRIPPGIPPGVPSRRPPAAPSRPTIIRPAEPSLLD
notes: dynamin-2 (DNM2), large GTPase; Each copy carries ONE fluorescent protein; FRET-FLIM used an EGFP-tagged copy together with an mCherry-tagged copy; number and brightness used the mCherry-tagged copy alone; The Addgene dynamin-2 plasmids may encode the rat protein (surmise); also called DNM2; Dyn-GFP; source: TZM-bl cells, transfected (plasmids obtained from Addgene), in live cells
For the protein B1, the “stoichiometry N” value in data set [1] is 4; in data set [2] it was 8 and 6.
